In PMC13486833 (2026):

Tests used:
RAGE-Fc chimera protein [1] = target: T1, RAGE-Fc chimera protein (UniProt Q15109 23-342); test: BLI; saturation
RAGE-Fc chimera protein [2] = target: T1, RAGE-Fc chimera protein; test: ELISA
RAGE-Fc chimera protein [3] = target: T1, RAGE-Fc chimera protein; test: BLI
RAGE-Fc chimera protein [4] = target: T1, RAGE-Fc chimera protein; test: BLI; kinetics

T1 sequence (Q15109 23-342, change not shown): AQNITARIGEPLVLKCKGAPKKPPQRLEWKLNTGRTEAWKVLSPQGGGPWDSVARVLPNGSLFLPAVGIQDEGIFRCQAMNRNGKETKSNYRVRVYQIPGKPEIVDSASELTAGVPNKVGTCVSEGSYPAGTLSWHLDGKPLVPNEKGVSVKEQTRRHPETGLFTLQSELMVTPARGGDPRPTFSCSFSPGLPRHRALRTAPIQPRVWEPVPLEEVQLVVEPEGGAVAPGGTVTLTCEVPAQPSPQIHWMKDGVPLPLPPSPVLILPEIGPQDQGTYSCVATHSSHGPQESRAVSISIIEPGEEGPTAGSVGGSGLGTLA

B1: DS-HMGB1 1–184 (domain or fragment)
chain: GKGDPKKPRGKMSSYAFFVQTCREEHKKKHPDASVNFSEFSKKCSERWKTMSAKEKGKFEDMAKADKARYEREMKTYIPPKGETKKKFKDPNAPKRPPSAFFLFCSEYRPKIKGEHPGLSIGDVAKKLGEMWNNTAADDKQPYEKKAAKLKEKYEKDIAAYRAKGKPDAAKKGVVKAEKSKKKK
modifications: disulfide bond between C22 and C44
Q: B1 was tested. Which Kd (RAGE-Fc chimera protein [1]) did it give?
A: 500 nM

Q: And the Kd (RAGE-Fc chimera protein [2])?
A: 33.9 nM

Q: What about the koff (RAGE-Fc chimera protein [3]) of the same binder?
A: 0.067 s⁻¹

Q: What about the Kd (RAGE-Fc chimera protein [4]) of the same binder?
A: 200 nM

B2: 3S-HMGB1 1–214 (natural protein)
chain: GKGDPKKPRGKMSSYAFFVQTSREEHKKKHPDASVNFSEFSKKSSERWKTMSAKEKGKFEDMAKADKARYEREMKTYIPPKGETKKKFKDPNAPKRPPSAFFLFSSEYRPKIKGEHPGLSIGDVAKKLGEMWNNTAADDKQPYEKKAAKLKEKYEKDIAAYRAKGKPDAAKKGVVKAEKSKKKKEEEEDEEDEEDEEEEEDEEDEDEEEDDDDE
Q: With B2 as the binder, how does the Kd (RAGE-Fc chimera protein [1]) read?
A: 3000 nM

Q: And the Kd (RAGE-Fc chimera protein [2])?
A: 7.22 nM

Q: What about the koff (RAGE-Fc chimera protein [3]) of the same binder?
A: 0.015 s⁻¹

Q: And the Kd (RAGE-Fc chimera protein [4])?
A: 900 nM

B3: DS Box A 1-88 (protein)
chain: GKGDPKKPRGKMSSYAFFVQTCREEHKKKHPDASVNFSEFSKKCSERWKTMSAKEKGKFEDMAKADKARYEREMKTYIPPKGETKKKF
modifications: intramolecular disulfide Cys22-Cys44 in paper numbering (UniProt Cys23-Cys45); paper numbering omits the initiator Met (offset +1: paper Pro8-Ile78 = UniProt 9-79); any initiator Met or tag remnant left out
Q: For B3, which Kd (RAGE-Fc chimera protein [1]) is on record?
A: 53400 nM

Q: And the koff (RAGE-Fc chimera protein [3])?
A: 0.439 s⁻¹

Q: And the Kd (RAGE-Fc chimera protein [4])?
A: 15600 nM

B4: FR-HMGB1 1–214 (natural protein)
chain: MGKGDPKKPRGKMSSYAFFVQTCREEHKKKHPDASVNFSEFSKKCSERWKTMSAKEKGKFEDMAKADKARYEREMKTYIPPKGETKKKFKDPNAPKRPPSAFFLFCSEYRPKIKGEHPGLSIGDVAKKLGEMWNNTAADDKQPYEKKAAKLKEKYEKDIAAYRAKGKPDAAKKGVVKAEKSKKKKEEEEDEEDEEDEEEEEDEEDEDEEEDDDDE
Q: How did the Kd (RAGE-Fc chimera protein [1]) turn out when B4 was run?
A: 2300 nM

Q: What about the Kd (RAGE-Fc chimera protein [2]) of the same binder?
A: 86.1 nM

Q: What about the koff (RAGE-Fc chimera protein [3]) of the same binder?
A: 0.041 s⁻¹

Q: And the Kd (RAGE-Fc chimera protein [4])?
A: 800 nM

B5: DS-HMGB1 1–214 (natural protein)
chain: MGKGDPKKPRGKMSSYAFFVQTCREEHKKKHPDASVNFSEFSKKCSERWKTMSAKEKGKFEDMAKADKARYEREMKTYIPPKGETKKKFKDPNAPKRPPSAFFLFCSEYRPKIKGEHPGLSIGDVAKKLGEMWNNTAADDKQPYEKKAAKLKEKYEKDIAAYRAKGKPDAAKKGVVKAEKSKKKKEEEEDEEDEEDEEEEEDEEDEDEEEDDDDE
modifications: disulfide bond between C22 and C44
Q: B5 was tested. Which Kd (RAGE-Fc chimera protein [1]) did it give?
A: 1300 nM

Q: What about the Kd (RAGE-Fc chimera protein [2]) of the same binder?
A: 4.35 nM

Q: And the koff (RAGE-Fc chimera protein [3])?
A: 0.043 s⁻¹

Q: What about the Kd (RAGE-Fc chimera protein [4]) of the same binder?
A: 200 nM

B6: dBB12L (FR-HMGB1 89–174::89–174) (other)
chain: KDPNAPKRPPSAFFLFCSEYRPKIKGEHPGLSIGDVAKKLGEMWNNTAADDKQPYEKKAAKLKEKYEKDIAAYRAKGKPDAAKKGVKDPNAPKRPPSAFFLFCSEYRPKIKGEHPGLSIGDVAKKLGEMWNNTAADDKQPYEKKAAKLKEKYEKDIAAYRAKGKPDAAKKGV
modifications: fully reduced Cys105 (printed numbering) in both copies; printed n = entry n+1 (C22/C44/C105 = C23/C45/C106 in P09429); direct tandem fusion, with native flanks acting as the linker
Q: With B6 as the binder, how does the Kd (RAGE-Fc chimera protein [4]) read?
A: 1300 nM

B7: DS-HMGB1 1–164 (domain or fragment)
chain: GKGDPKKPRGKMSSYAFFVQTCREEHKKKHPDASVNFSEFSKKCSERWKTMSAKEKGKFEDMAKADKARYEREMKTYIPPKGETKKKFKDPNAPKRPPSAFFLFCSEYRPKIKGEHPGLSIGDVAKKLGEMWNNTAADDKQPYEKKAAKLKEKYEKDIAAYRAK
modifications: disulfide bond between C22 and C44
Q: For B7, which Kd (RAGE-Fc chimera protein [1]) is on record?
A: 3100 nM

Q: What about the koff (RAGE-Fc chimera protein [3]) of the same binder?
A: 0.152 s⁻¹

Q: What about the Kd (RAGE-Fc chimera protein [4]) of the same binder?
A: 900 nM
